Results as given in article PMC8287954.
Where a chain is given by its changes, count along the chain named. Names and notes keep the numbering of the source.

Experiments:
Test in all cases: SEC-MALS
[1] = molecular target: hsSMNΔ5(T274I)•Gemin2, Q16637;O14893; details: chain shown with the change; 20°C; peak concentration 0.5 µM; parent: 231 (188-454)
[2] = molecular target: hsSMNΔ5(G279V)•Gemin2, Q16637;O14893; details: chain shown with the change; 20°C; peak concentration 0.3 µM; parent: 231 (188-454)
[3] = molecular target: hsSMNΔ5(H273R)•Gemin2, Q16637;O14893; details: chain shown with the change; 20°C; peak concentration 0.5 µM; parent: 231 (188-454)

B1: hsSMNΔ5•Gemin2 complex, O14893 T274I (protein)
chain 1: MAMSSGGSGGGVPEQEDSVLFRRGTGQSDDSDIWDDTALIKAYDKAVASFKHALKNGDICETSGKPKTTPKRKPAKKNKSQKKNTAASLQQWKVGDKCSAIWSEDGCIYPATIASIDFKRETCVVVYTGYGNREEQNLSDLLSPICEVANNIEQNAQENENESQVSTDESENSRSPGNKSDNIKPKSAPWNSFLPPPPPMPGPRLGPGKIIPPPPPICPDSLDDADALGSMLISWYMSGYHIGYYMGFRQNQKEGRCSHSLN
chain 2: MAWVPAESAVEELMPRLLPVEPCDLTEGFDPSVPPRTPQEYLRRVQIEAAQCPDVVVAQIDPKKLKRKQSVNISLSGCQPAPEGYSPTLQWQQQQVAQFSTVRQNVNKHRSHWKSQQLDSNVTMPKSEDEEGWKKFCLGEKLCADGAVGPATNESPGIDYVQIGFPPLLSIVSRMNQATVTSVLEYLSNWFGERDFTPELGRWLYALLACLEKPLLPEAHSLIRQLARRCSEVRLLVDSKDDERVPALNLLICLVSRYFDQRDLADEPS
B1 was tested. Which other: SEC-MALS Mw [1] did it give?
The other: SEC-MALS Mw was 198.

B2: hsSMNΔ5•Gemin2 complex, O14893 G279V (protein)
chain 1: B1 chain 1 with I242T, G247V
chain 2: B1 chain 2
How did the other: SEC-MALS Mw [2] turn out when B2 was run?
The other: SEC-MALS Mw was 384.

B3: hsSMNΔ5•Gemin2 complex, O14893 H273R (protein)
chain 1: B1 chain 1 with H241R, I242T
chain 2: B1 chain 2
For B3, which other: SEC-MALS Mw [3] is on record?
Its other: SEC-MALS Mw is 266.
